Experiment: soluble on expression in E. coli; label from the status in PepcDB or PDB records

Soluble on expression in E. coli, not soluble:
MGSDKIHHHHHHMINAKNIRFSYPRQRSLFESLNLDLPKGSITGLLGRNGEGKTTLLKLLCGQLLRKDGNLTVLTEDPRHRSVKFLSKVFLLQEEVTCPNVSIRDYFRMITPFYPSYSPEVAQEIIIAFDLNWDMKLGKVSQGQKKKAVIALALSLRTPLLLMDEPTNGLDIPSKSAFRRLMARYITEEQTVIISTHQVRDLEQIIDRIVMMDKNAIVCNRSVAELSEQFAFRQVVPGDKPIYKEGSTMGEVGVYENTTGEETPFSMELFFNGMIAEREVFNRVLNR, MGSDKIHHHHHHMINREIAVKVQHVSKTFKLPTEATKSFRTTLVNRLRGIKGFTEQHVLKDINFDVYKGDFFGIVGRNGSGKSTLLKIISQIYVPEKGQVTVDGKMVSFIELGVGFNPELTGRENVYMNGAMLGFTKDEVDDMYNDIVDFAELHHFMNQKLKNYSSGMQVRLAFSVAIKAQGDVLILDEVLAVGDEAFQRKCNDYFMERKDSGKTTILVTHDMGAVKKYCNRAVLIEDGLVKAYGEPFDVANQYSVDNTETAEDAMNAEKISVSDIAKDLKVSLISNPRITPNDTITFEVSYEVLKDDFTYIAFSLTDIDRNIWVYNDNSLDYPTQGIGRKCISYQCQLSQLNDIKLKLEVTVRDKNGQMLLFSTAEQSPQIVIQRNDIDQDDLSALDSASGLYQRNGKWVFH, MGSDKIHHHHHHMINTALRLAAPEIEAFLQGRIIAAMPNKFITPGREFALCPSDASINLLPVEQYYRSSFLPIAQSAFAQLNIQGVLIQPQQMNLLIDEEQLKLPILAYETVLIKTWAKCELCQIINNTESFAALSQLTIWTTEALKEILRQKQNIFLAYLRVYELPKSIEVPIKSNSQFVALSQPLNVSEDKPVLKDRTFAQRKHQLEKLQPPLHPELEELQSAIASLSISQPAAKQLDDDIKVFLGWSSDKLTNPLDSDLPWIQNIAKVGNSSDGHTFEKLVRRGLLKLGFTGSGLNPDATGGAGGMDFYAEQPYPIVGECKATKTEKVTDGTPAQLLKIGMNHLGKFQYDNSIKLIVAAGELNFYALRTATENQMNIVSPETLQKLVELQAHYKNSINLLDLSGNKRE, MGSDKIHHHHHHMINYMIPKGFLCCGKHVGIKKRKLDLGVVYSEKLCSAAAVFTKNKFCGIPIIVGKENIKDNKLQSIVVTSGVANVATGEEGLKNTYRILNKLSCELNIKSENILPSSTGIIGKQLPIDCIITGINGIKSSLSKYNWEEFNRAIMTTDKELKIKSCKIGDATVLGIAKGSGMIEPNMATMLAYFFTDASIKAVELKGILKRAVDKSFNMISIDHDTSTSDTAAILANGYVGNVNLEVFEKTFTDMCIDMAKDIVRDGEGVSKLIEATVMGCSSFESAKVIAKSIINSPLVKIAIYGSDPNWGRIAMAIGKSFEDDVDPLKIEIAFNSNVIYDKGKIYEENFDCIERYLRDNNECKIQANLNVGDFAATVWGSDFTEDYIRINSYYTKRK, MGSDKIHHHHHHMIPEEIYKILRKQRYQIDGHTAVKLCGWVRKKMLEDKNCYKSKFYGIETHRCIQCTPSVIWCQQNCIFCWRVLPRDIGIDISQIKEPKWEEPEVVYEKILAMHKRIIMGYAGVLDRVGEKKFKEALEPKHVAISLSGEPTLYPYLDELIKIFHKNGFTTFVVSNGILTDVIEKIEPTQLYISLDAYDLDSYRRICGGKKEYWESILNTLDILKEKKRTCIRTTLIRGYNDDILKFVELYERADVHFIELKSYMHVGYSQKRLKKEDMLQHDEILKLAKMLDENSSYKLIDDSEDSRVALLQNENRKINPKL, MGSDKIHHHHHHMIQYKRCSEVSIDLVYEAFRDGFSDYIIKMEVSKEDFIKRFFGAEGNSLKHSFVALDGNKSVGVILGGIKDYENIKTMRCGTLAVHPNYRGIGVSQKLFELHKDEAIQNGCKQLFLEVIVGNDRAIRFYNKLGYEKVYDLSYYNLKDMTKIIHKECKGIEVKQLEFPAFKVEIQKWLHFHINWQNDMDYIEKTNHTFYGAYVDNDLKGSICINEQGKISFIFIDKEYRNRGIGSKLLQVARDELNLESLLISFPNNSLLEGFLKKTGFEKNSLAQYEMYVLL, MGSDKIHHHHHHMISSITSSIPKDVLYAAAEWYATLYDEDCSENDRQTWQRWLHEDETHRLAWQQVEQIHARFHAVDSQLASSVLSRRGEERRRMLKLLVIASVTGGVGFSLPWDSYAADYRTGTGETRELSIETGMTVWLNTDSALNQQGNPALSQPLTFQLIKGELMLDNQTAHAARLTTPHGDLAAAAYSCQLALRYTSAHSVLSVFSGEVLLQTAVPAAQRVTAGQQVIFTRDRCSEPAPVENFRQSWRKGLLVADSMPLGQLINEISRYHNGYFHVDSAVTNLRISGVFPLHETDRLLDAIVRTLPVKVSRRFSWWVDIRPS, MGSDKIHHHHHHMITAEECRTYKEFVDLYQSYLYPLLGARLSRMYSPKNKVIIDMGTGPGYLSIQLAKRTNAHVHAVDINPAMHEIAQEEAKKSGVSSLISFDLEDVHHLSYADQYADFIVSYSCLHHWEDVVKGLKECYRVLAPGGKIVILDTFNPQGSHLEIMRKQIKEPEYFRFVREAFEESYSFEDIHQFVQDAGIPNYSLETFHFLPEDFIESLDELEDAPLWEQNDQSTDHEIESVTWMLTIEKEKEGAL, MGSDKIHHHHHHMITIDALGQVCPIPVIRAKKALEGLGEAGGVVAVLVDNDISRQNLQKMAEGMGYQSEYQEKDNGVIEVTIVAGEGCAVETSGTPADSGLVVAIGRNTMGEGSEELGRILLKGFIYSLRELTPPPARLLFFNSGAYLTSKDSNSIEDLKAMAAQGTIIQTCGTCINYYGITEQLAVGQVANMYDIVTAMAEAKRLINI, MGSDKIHHHHHHMITVSIVTYKTNLGELSKCLQSLISSLVSQIYIVDNSNERYIADFCQQYPNVIYIGSENVGYGAGHNQALRQVLNSGGKYHLILNSDVYFEPSVLEFLAAYMDAHADVAQVQPNVVYPDGEQQYTCRLLPTPANLIFRRFLPKRMVEKMNIRYQLKFDDHKKEMNVPYHQGSFMFFRLECFKKVGLFDERFFMYPEDIDITRRMHKWYRTMFVPSVTIVHAHRAASYKSKKMLKIHMVNMIKYFNKWGWIVDKERSAWNRKLLEELGYKK, MGSDKIHHHHHHMIVALIIHRPLTKRQKMVAYDVEQLEGKVRGALLQGTNSGKTGVIVLGGSSGRVDTTRAGLFANTGARALALQWFGGANQPPGICEIPLETFVDATDLLISRGCDRTVFVGTSKGAEAALLASTIDHRINVVIAISPSSVVLGNIGAGVDGISWPERSSWSFKRSPLDFVPADINWQKDYRDGLVSYRSFFEKCLSNDVQLNERARIPVESSPADLILVAGGDDALWPSGYFARQILQSRQAHGRQATLIFDKDAGHRILLPGETTQRSKLHAHGGSDEADAKLGQNAWRAIRELL, MGSDKIHHHHHHMIVAVGKDEEKIKESLEEMKGLCKTLGVEVVEWLWQKRAKPDPATYLGKGKLQKLKEVVEFCEADLVVVDDEITPVQYKNMQSELNVDVLDRTQVILEIFARHATSEEGKLQVEMASLLYELPRLVGKGEELSRLGGGIGTRGPGEPLLEVLRRHIKNRIAQLRKRLKEIEQERNTQRKQRLEKKIPHVSIVGYTNAGKSTLLKVLTDSDVYVADKLFATLEPVTRRLKLKSGRVILVSDTVGFIRKLPHTIVSAFKATLEEIKYSDVLIHLVDASDPYLEEKMKASEKVLEEIGADKIPRILVFNKIDLCPRERIETLKWKYPEALFISAEKRIGLDQLLDRLEEVISQRDVQETLKVPLEKIGQIYALKDRLEILNEDYREGYALITLKTDRETLEMLKRKVAS, MGSDKIHHHHHHMIVLFVDFDYFYAQVEEVLNPSLKGKPVVVCVFSGRFEDSGAVATANYEARKFGVKAGIPIVEAKKILPNAVYLPMRKEVYQQVSSRIMNLLREYSEKIEIASIDEAYLDISDKVRDYREAYNLGLEIKNKILEKEKITVTVGISKNKVFAKIAADMAKPNGIKVIDDEEVKRLIRELDIADVPGIGNITAEKLKKLGINKLVDTLSIEFDKLKGMIGEAKAKYLISLARDEYNEPIRTRVRKSIGRIVTMKRNSRNLEEIKPYLFRAIEESYYKLDKRIPKAIHVVAVTEDLDIVSRGRTFPHGISKETAYSESVKLLQKILEEDERKIRRIGVRFSKFIEAIGLDKFFDT, MGSDKIHHHHHHMIVLSKRELFAMLPSVDEVLSDNRIVEIINEYPRSLVLESVREVIDLKRQFILRLKEDASNSVTIEFGEIIESAIERVKLNYSLSLKKVINATGTVIHTNLGRSLLSEDIKDELWCAASRYSNLEYDLDNGERGSRYSHLTSTIKRLTGAEDVLVVNNNAAAVLLVLSTMAKGGEAIVSRGELVEVGGSFRIPSIMALSGAELVEVGSTNKTHLKDYKEAITEDTNVLMKVHTSNYRIMGFTESVSIEELVNLGKKYKLPVIEDLGSGVFIDLSKYGLSYEPTVLDSIRQGADVVTFSGDKMLGGPQAGIIVGKKEYIEKMKKNQLTRALRVDKLTICALEATLRMYLDETKAIENIPTLKMLTYKIEELEVKANKLFEKITALNLNANINIEDGFSQVGGGSMPLETISTKVISITPEHMNVSSLEKKLRLSEAHIIARVYDNKYVLDVRTIFDDEFDVIVEELRKAFN, MGSDKIHHHHHHMKALMFGWEFPPHILGGLGTASFGLTRGMAMQPDMDITFCIPKPWGDEDQSFLKIVGVNQVPIVWKDVDREYVQQRVSKAGMNADQYYKYRDHIYADFSYRHVTDLGCLEFSGRYPDNLLEEINNYSIVAGVIARTEEYDIIHAHDWLTYPAGIHAKNVSGKPLVIHVHATDYDRSRGNVNPDVYAIEKNGMDNADHIITVSNLTRQTVIEKYHQDPAKVTTVHNAVEPLSPEILAIPDKKGVKDKVITFLGRITMQKGPEYFVEAAAKVLAKAPYARFVMAGSGDMMDQMIRLAAARNISDRFHFTGFMKGKQVYEVLKASDVYVMPSVSEPFGISPLEAMQCGVPSIISKQSGCAEILDYAIKVDYWDIEALADAMYSIITYPAMHEFLKVEGKKEVDNIKWEYAGQKVRRIYDNVIGNK, MGSDKIHHHHHHMKAVVQQWYTHPAVRAALTDLADYRPTLATAIEIQQVPAPTFAERPRSLLVSQRMQALGLHDVEVDDLGNVYGRRPGSTARPGLLISAHLDTVFPADTDLSIRYEGERVYGPGIGDNSAGVAGLLRLAEMYQRFDLPNTSDIWFVANVGEEGLGDLRGMRRVVERLRTRLSTVVVIEGCDFGSLHHQAIGVRRFRIEATGPGGHSWGNFGTPSAIHVLVRLAARLTELQVPSSPRTTFNIGTISGGTSVNTIAQHANMLLDLRSVSSAALTDLVNEVYRLVEEVALEYPDVHIQLTKVGDRPSGAIPREHPLVQAAVAAYQMVGAQISFQQSSTDANIPLSLGMPAVCVGLTDGGNAHRTDEYILPFNLSRGMQALLLLSLAANTLETI, MGSDKIHHHHHHMKCFFESEEFEKAVEKIDRLYEKVDSIEEAEIAFLREKKPFQGVAVVKEETYTIYKTGEKLVELEDPEKAASIAYILAGEKLLSGGWVRRMVSGLLQAMIVLMEIEDENGWSHSQRVARLAERVGKKLGLSEEKLSLLREYAMLHDVGKIGIEQLMLYTPTRIRIFEQYPQDHTIMGSVFLASLEVLWDVVPIVRHHHENWDGTGYPDGLKGEEIPLEARIISVCDYYDVLTNFVSSEWEGRTKTHEEALEIIKKEAGKKFDPKVVEAFLEIFSDEAVE
